Laboratory results reported in article PMC12709188, “Expanding the CarD interaction network: CrsL is a novel transcription regulator in actinobacteria” (Nucleic Acids Research, 2025).
Several values for one entry are separate records, joined by “and”; a condition that tells them apart may be missing. Identical values can stand only once.

B1: CarD–NT (in vitro purified CarD) (natural protein, M. smegmatis, UniProt A0R561 1-162, looked up)
chain: MIFKVGDTVVYPHHGAALIEAIETRTIKGEQKEYLVLKVAQGDLTVRVPADNAEYVGVRDVVGQEGLDKVFQVLRAPHTEEPTNWSRRYKANLEKLASGDVNKVAEVVRDLWRRDQERGLSAGEKRMLAKARQILVGELALAENTDDAKAETILDEVLAAAS
notes: CarD, transcription factor of M. smegmatis; dimer when alone (native gel); Uniformly 13C,15N-labelled for some NMR samples; also called [^13C,^15N]-CarD; source: E. coli (strain LK3209), purified (Ni-NTA, TEV protease cleavage; for NMR also Superdex 75)
B2: CrsL–His (in vitro purified CrsL) (natural protein, M. smegmatis, UniProt A0R4M8 1-54, looked up)
chain: MPAKTDPADLGDVEPLADDTASQARRVVATYATDADECRMFLSMLGIGPSKTEV
notes: CrsL, small protein (predicted MW 5.7 kDa) encoded by MSMEG_5890 of M. smegmatis; 15N- or 13C,15N-labelled for NMR; also called [^15N]-CrsL; [^13C,^15N]-CrsL; source: E. coli (strain LK3499), purified (Ni-NTA, Superdex 75; for NMR Superdex 30)

Experiments:
[1] = biological target: the molecule itself; assay: native gel or EMSA; purified CrsL, CarD and DnaK mixed in 1× STB buffer (50 mM Tris–HCl pH 8.0, 5 mM Mg acetate, 100 μM DTT, 50 mM KCl, 50 μg/ml BSA), 37°C 15 min; 8% native gel at 4°C; Coomassie stain, bands confirmed by mass spectrometry
[2] = biological target: B1; assay: ITC; 27.6 μM CarD in the cell titrated by 315 μM CrsL; 27°C; 50 mM Tris–HCl, 100 mM NaCl, 0.5 mM DTT, pH 7.5; one-site binding model; triplicate; conditions: both partners purified

Row | Binder | stoichiometry N [1] | Kd [2] | dH [2] [kcal/mol] | stoichiometry N [2]
1 | B1 | 2 | – | – | –
2 | B2 | – | 4.3 nM and 4.5 nM and 3.3 nM | -21 | 1
